± gives the standard deviation of the averaged measurements.
System: ATP
Assay: switch fluorescence ratio, 500 uM ATP over buffer (Cy3 cluster intensity, sum of 5 cycles each) (fold (ratio)); higher = stronger signal-on switching upon ATP binding; sequences stand for … in TCGTCGGCAGCGTCAGATGTGTATAAGAGACAGTTTTTTTTTTTTTTTTTTTTTTTTT…TC
Conditions: aptamer strand: ATP DNA aptamer (quencher-CACCTGGGGGAGTATTGCGGAGGAAGG + anchor), 100 nM annealed; ATP concentration: 500 uM
Procedure, shortened: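 Imaging in selection buffer was followed by imaging after 15 min with 500 uM ATP at 22 °C, for Cy3-labelled switching-strand clusters annealed to 100 nM quencher-labelled ATP aptamer on a modified Illumina MiSeq flow-cell. Five of these buffer/ATP cycles ran, separated by NaOH stripping and re-annealing. The fluorescence ratio per cluster is summed target-cycle over summed buffer-cycle Cy3 intensity, averaged per switch-domain sequence; clusters outside 100-1000 RFU were removed.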
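Also: ATP exposure 15 min at 22 °C before imaging.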

Sequence | switch fluorescence ratio
GAAGGGGTTA | 1.03 ± 0.087
GAAGGGTACG | 1.07 ± 0.091
GAAGGGTTAC | 1.15 ± 0.15
GAAGGGTTGG | 0.999 ± 0.014
GAAGGGTTTG | 0.9968 ± 0.0053
GAAGGTATTT | 0.9517 ± 0.0056
GAAGGTCAGT | 0.971 ± 0.051
GAAGGTGGTG | 0.961 ± 0.032
GAAGGTTCGT | 1 ± 0.034
GAAGTAGGCG | 1.03 ± 0.028
GAAGTAGGTG | 1.02 ± 0.012
GAAGTAGTTT | 0.98 ± 0.089
GAAGTATGCA | 1.04 ± 0.031
GAAGTATGGG | 0.956 ± 0.024
GAAGTATGTG | 1.006 ± 0.0092
GAAGTCCTGT | 0.998 ± 0.021
GAAGTGAGCA | 1.01 ± 0.044
GAAGTGCGGT | 0.98474 ± 0.00042
GAAGTGGTTT | 0.997 ± 0.025
GAAGTGTCGG | 1.005 ± 0.0057
GAAGTTAGGT | 0.9981 ± 0.0087
GAAGTTATTG | 0.9898 ± 0.0022
GAAGTTCGAG | 0.998 ± 0.016
GAAGTTGGGT | 1.01 ± 0.029
GAATAAAATG | 1.04 ± 0.013

Sequence | switch fluorescence ratio
GAATACCTTT | 1.02 ± 0.013
GAATAGGGTG | 1.08 ± 0.039
GAATATAGTG | 1.02 ± 0.011
GAATATAGTT | 0.9947 ± 0.0078
GAATATGTGG | 1 ± 0.013
GAATATTTTG | 0.994 ± 0.015
GAATCAATGG | 1.03 ± 0.02
GAATCATGTT | 0.9915 ± 0.0065
GAATCCAGTT | 0.989 ± 0.02
GAATCCGTTC | 1.07 ± 0.026
GAATCGATAC | 1.76 ± 0.084
GAATCGGGGT | 0.992 ± 0.045
GAATCTCGGA | 1.018 ± 0.0018
GAATGAAGAA | 0.9989 ± 0.0081
GAATGAGATC | 1.01 ± 0.11
GAATGAGATT | 1.001 ± 0.0043
GAATGGAGGT | 1.01 ± 0.021
GAATGGCTAG | 1.0109 ± 0.00049
GAATGGCTGG | 0.962 ± 0.0099
GAATGGGAGT | 0.9969 ± 0.0051
GAATGGGTAT | 0.979 ± 0.026
GAATGGTAGT | 1.025 ± 0.0078
GAATGTATCG | 0.981 ± 0.021
GAATGTATGA | 0.99 ± 0.023
GAATGTTCAG | 1.02 ± 0.024

Sequence | switch fluorescence ratio
GAATGTTCTG | 0.996 ± 0.052
GAATTAGAGA | 1.03 ± 0.033
GAATTAGGGA | 1.01 ± 0.018
GAATTATCAG | 0.968 ± 0.045
GAATTATGTT | 1.01 ± 0.004
GAATTGGGGG | 1.01 ± 0.03
GAATTTCGGG | 0.996 ± 0.013
GAATTTGAGC | 1.03 ± 0.02
GAATTTGGAA | 1.01 ± 0.022
GAATTTGTGA | 0.98 ± 0.035
GAATTTGTGG | 0.995 ± 0.037
GAATTTTGG | 0.9824 ± 0.0032
GAATTTTTTC | 1.02 ± 0.016
GACAAATCTG | 1.04 ± 0.043
GACAACGGAT | 1.02 ± 0.03
GACAACTTTT | 0.991 ± 0.016
GACAATTCTT | 1.006 ± 0.0096
GACACAGGGG | 1.06 ± 0.047
GACACATCAA | 1.048 ± 0.008
GACACCAATC | 1.36 ± 0.052
GACACGGGGT | 1 ± 0.071
GACACGTGGG | 1.02 ± 0.055
GACAGAGCCA | 1.1036 ± 0.0011
GACAGAGGGT | 1.04 ± 0.013
GACAGCGGCG | 1.01 ± 0.032

Sequence | switch fluorescence ratio
GACAGGGTCC | 1.04 ± 0.052
GACAGTCGGC | 0.9669 ± 0.0067
GACATAAAGT | 0.986 ± 0.014
GACATCCGGC | 1.05 ± 0.036
GACATGATGT | 1.032 ± 0.0063
GACATTCACC | 1.1 ± 0.016
GACCAAGAAT | 1.06 ± 0.03
GACCAATATT | 1.134 ± 0.0034
GACCACGCTG | 1.044 ± 0.0056
GACCAGCCCC | 1.31 ± 0.098
GACCATGTTT | 0.9932 ± 0.0082
GACCCTAGAT | 1.008 ± 0.0036
GACCCTGATA | 0.987 ± 0.015
GACCGGACAT | 0.996 ± 0.013
GACCGGAGTC | 1.03 ± 0.049
GACCGTAATG | 1.05 ± 0.03
GACCTAAGAC | 1.13 ± 0.053
GACCTATATT | 1.05 ± 0.022
GACCTATCTT | 1.035 ± 0.0017
GACCTATTCG | 1.01 ± 0.018
GACCTATTTT | 1.023 ± 0.0039
GACCTCAGAC | 1.09 ± 0.024
GACCTCAGGT | 1.08 ± 0.11
GACCTTTGTT | 1.01 ± 0.022
GACGACAGTC | 1.029 ± 0.0052

Sequence | switch fluorescence ratio
GACGACGACA | 2.5 ± 0.092
GACGACTATT | 1.13 ± 0.016
GACGACTGAG | 0.999 ± 0.087
GACGAGCGGT | 1.3 ± 0.22
GACGAGGCAG | 2.27 ± 0.21
GACGATTGCG | 1.01 ± 0.032
GACGATTGTG | 0.991 ± 0.07
GACGGAAGAA | 1.74 ± 0.072
GACGGAAGTT | 1.004 ± 0.0017
GACGGAGTCG | 0.997 ± 0.03
GACGGCAGTG | 1 ± 0.02
GACGGGATAG | 1.245 ± 0.0072
GACGGGATCA | 1.02 ± 0.033
GACGGGCCGG | 1.01 ± 0.03
GACGGGGACT | 1.1 ± 0.025
GACGGGGCCC | 1 ± 0.013
GACGGGGGAA | 1.82 ± 1.3
GACGGGGGGC | 1.02 ± 0.018
GACGGGGGTA | 1.04 ± 0.043
GACGGGGTTA | 1.02 ± 0.018
GACGGGTTAG | 1.02 ± 0.017
GACGGTAAAG | 0.996 ± 0.037
GACGGTAGTT | 1.01 ± 0.047
GACGGTCACT | 1.21 ± 0.013
GACGGTTGCG | 0.977 ± 0.054

Sequence | switch fluorescence ratio
GACGTCGGGA | 1.012 ± 0.0021
GACGTTGGGG | 0.977 ± 0.01
GACGTTTAAT | 1.021 ± 0.0057
GACGTTTTGG | 0.997 ± 0.025
GACTAAAATG | 1.02 ± 0.019
GACTAAATGC | 1.8 ± 0.3
GACTAATACG | 1.04 ± 0.024
GACTACAGTG | 1.1 ± 0.019
GACTAGGAAG | 0.994 ± 0.022
GACTATTAGG | 0.989 ± 0.029
GACTATTGGG | 1 ± 0.044
GACTATTTGG | 1.02 ± 0.044
GACTCAGACA | 1.03 ± 0.047
GACTCGAAAA | 1.17 ± 0.16
GACTCTAGGA | 1.064 ± 0.0025
GACTCTATGG | 0.943 ± 0.11
GACTGAATAC | 3.91 ± 1.9
GACTGAGGGG | 1.02 ± 0.05
GACTGAGTTG | 0.998 ± 0.036
GACTGGCATA | 1.097 ± 0.0039
GACTGGCTT | 0.9868 ± 0.0073
GACTGGGGAG | 0.991 ± 0.056
GACTGGGGGG | 0.997 ± 0.041
GACTGTAAGC | 1.057 ± 0.0074
GACTGTACTA | 1.48 ± 0.075

Sequence | switch fluorescence ratio
GACTTACGTT | 1.22 ± 0.17
GACTTCGAAA | 1.63 ± 0.028
GACTTCGAGC | 1.02 ± 0.024
GACTTGAGGT | 1.03 ± 0.025
GACTTGCTGG | 0.9876 ± 0.0044
GACTTGGAAT | 1 ± 0.041
GACTTTGGCA | 0.983 ± 0.034
GACTTTGTCA | 1.04 ± 0.025
GACTTTTACC | 1.07 ± 0.027
GACTTTTTAG | 0.9801 ± 0.0065
GAGAAAGCCC | 1 ± 0.015
GAGAAGAGGA | 0.9918 ± 0.0021
GAGAAGATTT | 1.036 ± 0.0016
GAGAATCCGG | 1 ± 0.087
GAGAATGGGT | 0.981 ± 0.022
GAGAATGTGT | 0.994 ± 0.012
GAGACACATA | 1.09 ± 0.013
GAGACCGTGT | 1.01 ± 0.052
GAGACGGGGA | 0.982 ± 0.021
GAGACGGGTG | 1.01 ± 0.031
GAGACGGTCT | 1.05 ± 0.025
GAGAGAAGTG | 0.945 ± 0.022
GAGAGAATGG | 0.994 ± 0.0043
GAGAGACAGG | 1.014 ± 0.0095
GAGAGGAGGG | 0.944 ± 0.049

Sequence | switch fluorescence ratio
GAGAGGAGTA | 0.967 ± 0.037
GAGAGGCTGC | 0.975 ± 0.02
GAGAGGCTGT | 0.9538 ± 0.0062
GAGAGGGAGC | 0.91 ± 0.076
GAGAGGGGCT | 1.01 ± 0.02
GAGAGGGGTC | 1.01 ± 0.045
GAGAGGTG | 1.08 ± 0.021
GAGAGTACGT | 0.964 ± 0.013
GAGAGTTATT | 0.988 ± 0.04
GAGATATACT | 1.06 ± 0.017
GAGATCAGTT | 0.9808 ± 0.0058
GAGATGATTT | 1.02 ± 0.063
GAGATGGGGC | 1.09 ± 0.1
GAGATGTTT | 0.969 ± 0.04
GAGATTCTTG | 1 ± 0.02
GAGATTGGTG | 1 ± 0.031
GAGATTGTGG | 0.9652 ± 0.0048
GAGCAAGAGT | 1.8 ± 0.046
GAGCAGGGCC | 0.982 ± 0.046
GAGCATATCA | 1.006 ± 0.0028
GAGCCAGGGA | 1.001 ± 0.0029
GAGCCCAATG | 1.0092 ± 0.001
GAGCGGGGGA | 1.03 ± 0.017
GAGCGGTTTG | 0.998 ± 0.017
GAGCGTCGGA | 1.03 ± 0.12

From the supplement of paper PMC10126150
